Non-standard residues stand in square brackets, D forms with d. Hyp = O=C(O)[C@@H]1C[C@@H](O)CN1
Key:
[1] = target: T1, murine E^d MHC class II allele (Mus musculus, UniProt P01904+P01915); assay: simultaneous assay, E^d allele (A20 APC, G28.C9 T hybridoma, HEL106-116; HT-2 [3H]TdR readout); format: cell-based; set-up: The A20 and CH27 B cell lymphoma lines express H-2^d and H-2^k alleles, respectively; endogenous in cells; host or cells: A20 B cell lymphoma (mitomycin C-treated or paraformaldehyde-fixed); settings: Table 12, supernatant 1:2
T1 sequence (P01904 26-255): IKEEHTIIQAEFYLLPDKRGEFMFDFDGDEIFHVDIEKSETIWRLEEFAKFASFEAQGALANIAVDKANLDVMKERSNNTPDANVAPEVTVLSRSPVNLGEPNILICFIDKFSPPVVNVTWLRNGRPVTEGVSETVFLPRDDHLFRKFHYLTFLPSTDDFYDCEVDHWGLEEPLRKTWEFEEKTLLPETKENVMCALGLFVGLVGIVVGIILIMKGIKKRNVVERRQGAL
T1 sequence (P01915 27-264 limits assumed): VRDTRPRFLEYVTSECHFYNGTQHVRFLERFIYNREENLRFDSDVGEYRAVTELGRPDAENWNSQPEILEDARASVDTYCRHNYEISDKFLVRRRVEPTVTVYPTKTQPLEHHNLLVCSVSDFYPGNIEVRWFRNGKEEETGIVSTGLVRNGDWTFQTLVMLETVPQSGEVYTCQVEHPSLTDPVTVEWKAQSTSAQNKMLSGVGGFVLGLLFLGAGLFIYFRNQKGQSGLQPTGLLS
Method in brief: (§1)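 Antigenic peptide, mitomycin C-treated APC, effector compound and allele-restricted T hybridoma cultured together for 24 h. Supernatant then transferred to interleukin-dependent HT-2 cells. T cell activation quantified as [3H]TdR uptake by HT-2 cells.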

[2] = tested on: murine E^k MHC class II allele; assay: AE101 series peptide prepulse assay, E^k allele; format: cell-based; settings: Table 35; AE101 series peptide prepulse 64 μM; antigenic peptide 0.4 μM; supernatant dilution 1:2
Experimental: (§2) Table 35: Activities of multiple substitution analogs of AE235, targeting the E^k and E^d allele, in an AE101 series peptide prepulse assay. In this assay the concentration of AE101 series peptides used during the prepulse was 64 μM. The concentrations of antigenic peptides were 0.3 μM for Ed and 0.4 μM for E^k. The supernatant dilutions taken into the HT-2 cell assay was 1:4 for E and 1:2 for E^k. The AE381 peptide is a head-to-tail cyclization: the amino terminal amino group is coupled through an amide linkage to the carboxyl terminal group. The AE 382 peptide is a side-to-tail cyclization: the epsilon amino group of Lys^4 is coupled through an amide linkage to the carboxyl terminal group.
(§3) AE101 series peptide prepulse assays were carried out in the E^d and E^k systems as described for simultaneous competition assays with the following modifications. Fixed APC were first incubated for 6 h at 1×10^6DMEM-5% FCS with 64 μM of each AE101 series peptide or with PBS. The APC were then washed four times with ten volumes of DMEM-5% FCS, and were cocultured with T hybridoma cells and the indicated submaximal doses of antigenic peptides used in the simultaneous competition assays. The baseline T cell response was measured by culturing T hybridoma cells with antigenic peptide and PBS-pretreated APC.

[3] = target: T1, murine E^d MHC class II allele; assay: AE101 series peptide prepulse assay, E^d allele; format: cell-based; settings: Table 35; AE101 series peptide prepulse 64 μM; antigenic peptide 0.3 μM; supernatant dilution 1:4
Experimental: as §2, §3

[4] = tested on: murine E^k MHC class II allele; assay: simultaneous assay, E^k allele (CH27 APC, TPc9.1 T hybridoma, THMCC82-103 or PGCC81-104); format: cell-based; settings: Table 12, supernatant 1:4
Method in brief: as §1

[5] = target: soluble HLA-DR1 (HLA-DR alpha truncated after Asn192 with a C-terminal nine amino acid HA epitope tail; HLA-DR1 beta truncated after Lys198), made in Baculovirus-infected insect cells (human); assay: exchange ELISA: tethered HLA-DR1 preloaded with unlabeled hMBP(90-102) 50 uM, washed; biotin-hMBP(90-102) 50 uM alone, no AE peptide, 1 h 37 C
[6] = target: soluble HLA-DR1 (HLA-DR alpha truncated after Asn192 with a C-terminal nine amino acid HA epitope tail; HLA-DR1 beta truncated after Lys198), made in Baculovirus-infected insect cells (human); assay: release ELISA as Table 36; unlabeled hMBP(90-102) 250 uM alone against prebound biotin-hMBP(90-102) on tethered HLA-DR1
[7] = target: soluble HLA-DR1 (HLA-DR alpha truncated after Asn192 with a C-terminal nine amino acid HA epitope tail; HLA-DR1 beta truncated after Lys198), made in Baculovirus-infected insect cells (human); assay: loading ELISA: empty tethered HLA-DR1 with biotin-hMBP(90-102) 50 uM and AE peptide 64 uM, 1 h 37 C; biotin bound read by avidin-HRP
[8] = target: soluble HLA-DR1 (HLA-DR alpha truncated after Asn192 with a C-terminal nine amino acid HA epitope tail; HLA-DR1 beta truncated after Lys198), made in Baculovirus-infected insect cells (human); assay: exchange ELISA: tethered HLA-DR1 preloaded with unlabeled hMBP(90-102) 50 uM, washed; AE peptide plus biotin-hMBP(90-102) 50 uM, 1 h 37 C; biotin bound as fraction of positive control (overnight loading)
[9] = target: soluble HLA-DR1 (HLA-DR alpha truncated after Asn192 with a C-terminal nine amino acid HA epitope tail; HLA-DR1 beta truncated after Lys198), made in Baculovirus-infected insect cells (human); assay: release ELISA as Table 36 (biotin-hMBP(90-102) left on tethered HLA-DR1); AE peptide 64 uM, with unlabeled hMBP(90-102) 250 uM
[10] = target: soluble HLA-DR1 (HLA-DR alpha truncated after Asn192 with a C-terminal nine amino acid HA epitope tail; HLA-DR1 beta truncated after Lys198), made in Baculovirus-infected insect cells (human); assay: release ELISA: soluble HLA-DR1 tethered by 12CA5 and preloaded with biotin-hMBP(90-102); AE peptide 64 uM, 1 h 37 C, no unlabeled peptide; biotin still bound read by avidin-HRP (1.0 = PBS control, 0.0 = no DR1; low value = released)
[11] = target: soluble HLA-DR1 (HLA-DR alpha truncated after Asn192 with a C-terminal nine amino acid HA epitope tail; HLA-DR1 beta truncated after Lys198), made in Baculovirus-infected insect cells (human); assay: release ELISA as Table 36 (biotin-hMBP(90-102) left on tethered HLA-DR1); AE peptide 64 uM, without unlabeled hMBP(90-102)
[12] = target: soluble HLA-DR1 (HLA-DR alpha truncated after Asn192 with a C-terminal nine amino acid HA epitope tail; HLA-DR1 beta truncated after Lys198), made in Baculovirus-infected insect cells (human); assay: release ELISA as Table 36 (biotin-hMBP(90-102) left on tethered HLA-DR1); AE peptide 1 uM, without unlabeled hMBP(90-102)
[13] = target: soluble HLA-DR1 (HLA-DR alpha truncated after Asn192 with a C-terminal nine amino acid HA epitope tail; HLA-DR1 beta truncated after Lys198), made in Baculovirus-infected insect cells (human); assay: release ELISA as Table 36 (biotin-hMBP(90-102) left on tethered HLA-DR1); AE peptide 1 uM, with unlabeled hMBP(90-102) 250 uM
[14] = target: soluble HLA-DR1 (HLA-DR alpha truncated after Asn192 with a C-terminal nine amino acid HA epitope tail; HLA-DR1 beta truncated after Lys198), made in Baculovirus-infected insect cells (human); assay: release ELISA as Table 36; AE101 1 uM, without unlabeled hMBP(90-102)
[15] = AE peptide 16 μM (second value)

Molecule | Relative Enhancement (of biotin-hMBP(90-102) binding to empty HLA-DR1) (relative to no AE peptide = 1) [7] | Relative Binding (of biotin-hMBP(90-102) to HLA-DR1) (fraction of positive control o.d.) [8] | Relative Release (fraction of positive control o.d.) [9] | Relative Release (fraction of positive control o.d.) [10] | Relative Release (fraction of positive control o.d.) [11] | Relative Release (fraction of positive control o.d.) [12] | Relative Release (fraction of positive control o.d.) [13] | other results
Ac-LRMKlpk-NH2 [AE172] | – | – | – | – | – | – | – | Times Baseline Response, E^d ([1]; AE peptide 1 μM (fourth value)): 2; Times Baseline Response, E^d ([1]; AE peptide 4 μM (third value)): 2; Times Baseline Response, E^d [1, 15]: 7; Times Baseline Response, E^d ([1]; AE peptide 64 μM (first value)): 54; T cell response relative to baseline with PBS-pretreated APC (NONE = 1.0), E^k [2]: 2.1; T cell response relative to baseline with PBS-pretreated APC (NONE = 1.0), E^d [3]: 1.1; Times Baseline Response, E^k ([4]; AE peptide 1 μM (fourth value)): 2.8; Times Baseline Response, E^k ([4]; AE peptide 4 μM (third value)): 4.2; Times Baseline Response, E^k [4, 15]: 21.1; Times Baseline Response, E^k ([4]; AE peptide 64 μM (first value)): 46.2
N-terminally biotin-labeled human myelin basic protein peptide hMBP(90-102) (from UniProt P02686 90-102) | – | – | – | – | – | – | – | Relative Binding (fraction of positive control o.d.) [5]: 0.08
unlabeled human myelin basic protein peptide hMBP(90-102) (from UniProt P02686 90-102) | – | – | – | – | – | – | – | Relative Release (fraction of positive control o.d.) [6]: 0.81
Ac-LRMKYPK-NH2 [AE235] | 0.61 | 0.15 | 0.6 | 0.79 | 0.81 | 1.05 | 0.48 | –
YRMKLPKSAKPVSQMR [AE101] | 2.66 | 0.31 | – | -0.33 | – | – | – | Relative Release (fraction of positive control o.d.) [14]: 0.02
LRMKLPK (head-to-tail cyclization: the amino terminal amino group is coupled through an amide linkage to the carboxyl terminal group) [AE381] | 1.84 | -0.12 | -0.19 | – | 0.5 | 0.64 | 0.09 | –
YRMKLPKSAK [AE108] | – | – | 0.14 | 1.14 | 0.31 | 0.52 | 0 | –
Ac-YRMKL[Hyp]KSAK-NH2 (SMILES CSCC[C@H](NC(=O)[C@H](CCCNC(=N)N)NC(=O)[C@H](Cc1ccc(O)cc1)NC(C)=O)C(=O)N[C@@H](CCCCN)C(=O)N[C@@H](CC(C)C)C(=O)N1C[C@H](O)C[C@H]1C(=O)N[C@@H](CCCCN)C(=O)N[C@@H](CO)C(=O)N[C@@H](C)C(=O)N[C@@H](CCCCN)C(N)=O) [AE143] | – | – | 0.21 | – | 0.58 | 0.51 | 0.35 | –
Ac-LRLKLPK-NH2 [AE206] | 2.57 | -0.13 | -0.29 | – | 0.08 | 0.58 | 0.03 | –

Source: patent US6835382B2, “Ii peptide therapeutics to enhance antigen presentation” (University of Massachusetts, priority 1996, dated 2004)
